Assay results from the supplement of paper PMC10567573.

B1: DVL3 (parent)
chain: SDVVDWLYHNVEGFTDRREARKYA

Variants of: B1
Assay: protein stability index of a GFP-peptide fusion (GPS, HEK-293T) (PSI 1-6); higher = more stable
Conditions: c terminus: a fixed tail appended
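Also: lentivirally expressed fusions sorted by FACS into six bins by GFP to DsRed ratio, PSI derived from sequencing read proportions per bin multiplied by bin number.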

Protein stability index: each site, then its substitutions
H9: A 2.37, C 2.13, Y 3.21, R 2.8, Q 3.11, M 2.79, N 3.83, K 2.67, G 3.32, T 2.67, W 2.42, L 2.55, P 4, S 2.94, D 3.66, V 2.16, F 2.14, I 2.09
L7: M 3.44, S 4.75, T 4.05, H 4.68, I 3.01, Y 3.28, Q 4.31, D 4.58, W 3.58, R 2.65, E 5.12, P 3.63, G 4.25, V 3.5, C 3.65, A 3.54, K 4.64, F 2.12
Y8: T 3.63, W 2.31, K 3.83, P 4.51, Q 3.81, L 2.27, M 2.74, S 3.56, E 4.2, C 3.79, I 2.39, D 4.61, G 4.25, N 3.87, V 2.93
D5: A 1.98, H 2.44, K 2.36, E 3.6, V 1.19, C 1.84, M 2.87, N 2.07, T 2.75, L 1.41, P 3.71, Y 2.53, F 2.21, G 3.06, W 1.7, S 2.5, Q 3.23, I 1.82
W6: E 4.97, S 4.76, G 4.32, D 4.75, Q 4.22, H 4.21, I 4.13, L 4.35, R 4.79, T 4.54, P 4.86, K 4.38, V 4.58, M 3.82, C 3.81, A 4.58, F 2.9, N 4.95, Y 3.6
N10: E 3.69, A 2.1, F 1.75, C 2.1, D 4.09, Q 2.91, L 2, K 2.34, S 3.01, G 3.03, H 2.7, T 3.33, Y 2.01, W 2.63, I 2.25, V 2.58, R 2.6, M 1.94
E12: N 2.5, S 2.83, L 2.08, G 2.37, Q 2.98, W 2.04, V 1.28, F 1.98, K 3.54, C 2.18, P 2.33, R 2.78, A 3.49, H 2.88, D 2.96, I 1.94, M 2.01, T 2.63
V3: Y 3, R 3.95, W 2.04, S 3.44, T 4.13
V11: Q 3.36, F 2.46, H 3.6, N 3.83, D 3.62, L 2.03, I 2.61, W 2.36, T 2.67, K 3.85, R 3.1, C 3.07, S 2.45, P 4.08, G 4.04, Y 3.48, A 2.8, E 3.53, M 2.58
V4: W 2.44, F 3.53, T 3.6, L 2.98, R 3.84, K 3.46, G 3.84, Q 3.67, Y 3.21, A 3.09, E 4.08, H 3.52, S 3.68, P 3.81, N 3.89, D 3.78, I 2.56, C 2.77, M 3.76
